# Reference: patent publication US10533231B2, “Artificial bioluminescent enzyme” (NATIONAL INSTITUTE OF ADVANCED INDUSTRIAL SCIENCE AND …, priority 2012, dated 2020)
# B1: ALuc16: artificial luciferase, SEQ ID NO: 13 (protein)
# chain: MMGIKVLFALICFALVQANPTENKDDIDIVGVEGKFGTTDLETDLFTIVEDMNVISRDTDVDANRADRGRRGKLPGKKLPLEVLKELEANAQKAGCTRGCLICLSHIKCTAKMKKWLPGRCESWEGDKETGQGGIGEAIVDIPEIPGFKDLEPMEQFIAQVDLCVDCTTGCLKGLANVKCSDLLKKWLPSRCATFASKIQAQVDKIKGAGGS
# modifications: Synthetic ALuc16
# B2: ALuc33: artificial luciferase containing an HA-tag, SEQ ID NO: 35 (protein)
# chain: MMGIKVLFALICFALVQANMMYPYDVPDYAGVEGKFGTTDLETDLFTIVEDMNVISRDTDVDANRADRGRRGKLPGKKLPLEVLKELEANAQKAGCTRGCLICLSHIKCTAKMKKWLPGRCESWEGDKETGQGGIGEAIVDIPEIPGFKELAPMEQFIAQVDLCADCTTGCLKGLANVKCSALLKKWLPSRCAGFADKIQAQVDTIKGAGGS
# modifications: HA tag; Synthetic ALuc33
# B3: ALuc34: artificial luciferase containing a Flag-tag, SEQ ID NO: 36 (protein)
# chain: MMGIKVLFALICFALVQANMMDYKDDDDKVGVEGKFGTTDLETDLFTIVEDMNVISRDTDVDANRADRGRRGKLPGKKLPLEVLKELEANAQKAGCTRGCLICLSHIKCTAKMKKWLPGRCESWEGDKETGQGGIGEAIVDIPEIPGFKELAPMEQFIAQVDLCADCTTGCLKGLANVKCSALLKKWLPSRCAGFADKIQAQVDTIKGAGGS
# modifications: Flag tag; Synthetic Aluc34
# B4: cSimgr8: integrated-molecule-format bioluminescent probe, ALuc16 bisected at 125/126, SEQ ID NO: 21 (protein)
# chain: MNALLRYLLDKDGSGIGEAIVDIPEIPGFKDLEPMEQFIAQVDLCVDCTTGCLKGLANVKCSDLLKKWLPSRCATFASKIQAQVDKIKGAGGLSGSGGNPTENKDDIDIVGVEGKFGTTDLETDLFTIVEDMNVISRDTDVDANRADRGRRGKLPGKKLPLEVLKELEANAQKAGCTRGCLICLSHIKCTAKMKKWLPGRCESWEGDKETGQGGGGGTMNLEARKTKKKIKGIQQATTGVSQETSENPGNKTIVPATLPQLTPTLVSLLEVIEPEVLYAGYDSSVPDSTWRIMTTLNMLGGRQVIAAVKWAKAIPGFRNLHLDDQMTLLQYSWMFLMAFALGWRSYRQSSANLLCFAPDLIINEQRMTLPCMYDQCKHMLYVSSELHRLQVSYEEYLCMKTLLLLSSVPKDGLKSQELFDEIRMTYIKELGKAIVKREGNSSQNWQRFYQLTKLLDSMHEVVENLLNYCFQTFLDKTMSIEFPEMLAEIITNQIPKYSNGNIKKLLFHQK
# modifications: Synthetic cSimgr8 (single-chain probe)
# Key:
# [1] = test system: COS-7 cells; assay: Comparison of luminescence intensity of ALucs (Example 1-2); assay type: cell-based, African green monkey; details: COS-7 cultured overnight, Promega assay solution, LAS-4000
# Excerpt: The artificial luciferase (ALuc) genes synthesized by the above process were subcloned into mammalian cell expression vectors (pcDNA3.1 (+)). Each expression vector was transfected with African green monkey kidney-derived COS-7 cells, and the luminescence intensity, luminescence stability, and red-shifted degree of artificial luciferases (ALucs) were compared (FIGS. 2 to 5).
# First, the luminescence intensity of artificial luciferases (ALucs) was compared (FIG. 2). For the comparison, COS-7 cells containing a vector encoding each luciferase were cultured overnight, and then the relative luminescence intensity was measured by using an assay solution, which is a mixture of a cell lysis solution and a substrate, produced by Promega, and a luminescence image analyzer (LAS-4000).
# [2] = test system: COS-7 cells; assay: Luminescence stability of ALucs after substrate injection (Example 1-3); assay type: cell-based, African green monkey; details: Promega lysis and reaction solution
# Description: The luminescence stability of the artificial luciferases (ALucs) of the present invention was examined in various respects (FIG. 3). COS-7 cells containing each luciferase gene were cultured for 9 hours, and treated with a cell lysis solution produced by Promega for 20 minutes. Temporal changes in luciferase luminescence intensity after the introduction of a substrate-containing reaction solution produced by Promega were observed every five minutes (FIG. 3A).
# This experiment was expanded to artificial luciferases ALuc16 to ALuc25 (FIG. 3BC).
# [3] = Heat resistance of ALucs in lysate (Example 1-4); assay type: physicochemical; details: 80° C. for 10 minutes
# Description: The heat resistance and degree of extracellular secretion of artificial luciferases of the present invention were measured (FIG. 4). First, to measure heat resistance, COS-7 cells containing each luciferase were lysed in cell lysis solutions produced by Promega to prepare lysates. Subsequently, same samples were allowed to stand at room temperature or heated at 80° C. for 10 minutes, and changes in luminescence intensity were compared by using a (substrate-containing) reaction solution produced by Promega.
# [4] = test system: COS-7 cells; assay: Degree of extracellular secretion of ALucs (Example 1-4); assay type: cell-based, African green monkey; details: luminescence intensity of the medium, overnight culture
# Description: Further, each luciferase (ALuc) was introduced into COS-7 cells, culturing was performed overnight, and then the amount of each luciferase (ALuc) secreted from the cells was measured based on the luminescence intensity of the medium (FIG. 4B).
# [5] = test system: COS-7 cells; assay: Mammalian two-hybrid assay with luciferase reporters (Example 1-9); assay type: cell-based, African green monkey
# Description: First, using a known gene engineering technique, a novel reporter expression vector obtained by inserting a gene encoding MpLuc4 or ALuc16 into a commercially available reporter expression vector (pG5) was constructed. In addition, pG5-GLuc, which is the result of the researchers' previous study, was also prepared (FIG. 9A).
# In addition to any one of the above three types of reporter expression vectors, a vector (pACT-MyoD) expressing a muscle regulatory factor (MyoD) and a vector (pBIND-ID) expressing a transcriptional regulator (ID) were cotransfected into COS-7 cells. After culturing overnight in a cell culturing device, a lysis solution and a substrate solution produced by Promega were used to cause a luminescent reaction, and difference in luminescence intensity varying according to the reporter difference was compared.
# Along with the measurement, the luminescence value from the supernatant (medium) during cell culturing was simultaneously measured.
# [6] = Prolonged activity stability of ALucs secreted in medium (Example 1-19); assay type: physicochemical
# Description: The prolonged activity stability of the artificial luciferases (ALucs) developed in the present invention was examined. First, a plasmid expressing each artificial luciferase (ALuc16, ALuc22, ALuc23, ALuc24, ALuc25, and ALuc30) (in the figure, each is referred to as A16, A22, A23, A24, A25, and A30) was introduced into COS-7 cells, and then culturing was continued for 24 hours. By the culturing, each artificial luciferase was secreted into the medium. The artificial luciferase secreted in the medium was collected, and a difference in enzymatic activity was measured under the same conditions in the following manner. On the first day (Day 0), 50 μL of assay solution (containing native coelenterazine, produced by Promega) was added to 5 μL of each medium, and the luminescence value (enzymatic activity) was measured using an LAS-4000 (produced by FujiFilm). In the same manner, the luminescence value on Day 8, Day 16, and Day 25 was compared with the luminescence value on Day 0 (FIG. 19 (A)).
# [7] = test system: COS-7 cells; assay: Enzymatic activity confirmation of ALuc (section 3-1, 3-2); assay type: cell-based, African monkey; details: vs conventional copepod luciferases
# Outline: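 ALuc expression vector lipofected into COS-7 cells, with unmutated GLuc as a parallel control. Lysates made about 16 h post-transfection and mixed with coelenterazine substrate. Luminescence intensity read at a chosen wavelength each minute for signal stability; full spectral scans used to detect wavelength shifts.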
# [8] = test system: COS-7 cells; assay: Luminescence intensity of tag-containing ALucs secreted into medium (Example 1-21); assay type: cell-based; details: culturing one day, Promega kit with nCTZ
# Description: To compare the luminescence intensity of novel luciferases, a comparison experiment was performed under the same conditions as Example 1-2 (COS-7 cells, culturing for one day, using an assay kit produced by Promega) (FIG. 21 (B)). Finally, the luminescence intensity of each luciferase secreted into the medium was compared using an assay kit (containing native coelenterazine (nCTZ)) produced by Promega.
# [9] = test system: COS-7 cells; assay: Luminescence characteristics of tag-containing ALucs (Example 1-22); assay type: cell-based; details: medium two days after gene transfer
# Description: To compare the relative luminescence intensity of these luciferases, the following experiment was conducted. First, a gene encoding each luciferase was subcloned into pcDNA3.1 (+), which is a eukaryotic expression vector, and each vector was introduced into COS-7 cells. Two days after gene transfer, the relative luminescence intensity of luciferase secreted into each medium was compared using a luminescence reagent produced by Promega.
# [10] = test system: stress hormone receptor (glucocorticoid receptor ligand binding domain; GR HLBD); assay: Integrated-molecule-format bioluminescent probes, ALuc16 bisection sites (Example 1-10); assay type: cell-based; details: presence/absence of cortisol
# Excerpt: First, ALuc was bisected into two segments, and arranged right and left. A stress hormone receptor (glucocorticoid receptor ligand binding domain; GR HLBD) and its binding peptide (LXXLL motif) were respectively connected to the end of the two segments. As shown in the lower row of FIG. 10A, the working mechanism of the probe is such that a molecule is folded in the presence of a ligand, thus recovering the luminescence intensity.
# In the bisection of ALuc16, the probes were named as cSimgr8 (SEQ ID NO: 21) to cSimgr14 according to its bisection point. The bisection point corresponding to each plasmid is as follows: cSimgr8 (125/126), cSimgr9 (129/130), cSimgr10 (133/134), cSimgr11 (137/138), cSimgr12 (137/138; containing a mutant at the joint portion), cSimgr13 (141/142), and cSimgr14 (146/147).
molecule,measurement,setting,value
B1,"luminescence intensity higher than that of conventional GLuc, Renilla luciferase and MpLuc4",[1],about 50 folds
same,luminescence intensity (initial),[2],advantageous initial luminescence intensity
same,change of luminescence intensity by heating,[3],a remarkable reduction in luminescence intensity that may be due to heating was not observed
same,extracellular secretion,[4],relatively high extracellular secretion
same,luminescence value from the supernatant (medium),[5]; during cell culturing,slightly strong bioluminescence
same,luminescence intensity as two-hybrid reporter,"[5]; lysate, equal conditions, vs MpLuc4 and GLuc reporters",highest luminescence intensity
same,prolonged enzymatic activity stability,[6]; Day 0 to Day 25,significant decrease in enzymatic activity
same,remaining enzymatic (luminescence) activity vs initial,[6]; after 25 days,20%
same,luminescence stability (general statement),[7],remarkably stable luminescence signals
B2,luminescence intensity of luciferase secreted into the medium,[8],relatively high luminescence intensity
same,relative luminescence intensity,[9],relatively high luminescence intensity
same,luminescence stability (general statement),[7],remarkably stable luminescence signals
B3,luminescence intensity of luciferase secreted into the medium,[8],relatively high luminescence intensity
same,relative luminescence intensity,[9],relatively high luminescence intensity
same,luminescence stability (general statement),[7],remarkably stable luminescence signals
B4,S/N ratio of probe,[10],good S/N ratio
same,absolute luminescence intensity of probe,[10],low absolute luminescence intensity
